Values belong to the molecule of their own block, whether it stands above or below them.
Experiments:
[1] = target: CLDN6 SNP (single nucleotide polymorphism) variant I143V (human) (UniProt P56747); assay: flow cytometry, HEK293T transiently co-transfected with the claudin and a fluorescence reporter; other quadrants printed: Q1 0,18, Q3 64,8…, Q4 34,5…
[2] = target: human CLDN4 (claudin 4) (human) (UniProt O14493); assay: flow cytometry, HEK293T transiently co-transfected with the claudin and a fluorescence reporter; other quadrants printed: Q1 0,47, Q3 51,89, Q4 46,45
[3] = target: T1, human CLDN6 (claudin 6), full length (human, UniProt P56747 1-220); assay: flow cytometry, HEK293T transiently co-transfected with the claudin and a fluorescence reporter; other quadrants printed: Q1 0,09, Q3 75,0…, Q4 24,73
T1 construct: Expressed untagged from vector p3953 in HEK293T, HEK293 and CHO-K1 cells; endogenous in NEC8 and OV90 cells; In the Western blots it stood in denatured cell lysate; also called wild-type CLDN6
T1 sequence: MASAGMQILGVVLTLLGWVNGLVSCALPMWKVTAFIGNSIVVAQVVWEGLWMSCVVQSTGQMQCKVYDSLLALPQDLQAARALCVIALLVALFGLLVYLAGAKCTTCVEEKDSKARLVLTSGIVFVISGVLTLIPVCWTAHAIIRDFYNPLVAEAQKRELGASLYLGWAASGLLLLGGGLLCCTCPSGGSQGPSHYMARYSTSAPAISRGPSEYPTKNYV

[4] = target: human CLDN3 (claudin 3) (human) (UniProt O15551); assay: flow cytometry, HEK293T transiently co-transfected with the claudin and a fluorescence reporter; other quadrants printed: Q1 0,32, Q3 63,10, Q4 36,2…
[5] = target: human CLDN9 (claudin 9) (human) (UniProt O95484); assay: flow cytometry, HEK293T transiently co-transfected with the claudin and a fluorescence reporter; other quadrants printed: Q1 0,65, Q3 53,91, Q4 44,03
[6] = target: human CLDN3 (claudin 3) (human) (UniProt O15551); assay: flow cytometry, HEK293T transiently co-transfected with the claudin and a fluorescence reporter; positive control, by the legend MAB4620; other quadrants printed: Q1 37,91, Q3 29,94, Q4 0,76
[7] = target: CLDN6 SNP (single nucleotide polymorphism) variant I143V (human) (UniProt P56747); assay: flow cytometry, HEK293T transiently co-transfected with the claudin and a fluorescence reporter; positive control, by the legend MAB3656; other quadrants printed: Q1 47,20, Q3 20,26, Q4 0,33
[8] = target: T1, human CLDN6 (claudin 6), full length; assay: flow cytometry, HEK293T transiently co-transfected with the claudin and a fluorescence reporter; positive control, by the legend MAB3656; other quadrants printed: Q1 58,39, Q3 18,6…, Q4 0,13
[9] = target: T1, human CLDN6 (claudin 6), full length; assay: flow cytometry saturation binding (median fluorescence), HEK293 cells stably expressing human CLDN6

human CLDN3 (claudin 3) (human), sequence (O15551 whole entry): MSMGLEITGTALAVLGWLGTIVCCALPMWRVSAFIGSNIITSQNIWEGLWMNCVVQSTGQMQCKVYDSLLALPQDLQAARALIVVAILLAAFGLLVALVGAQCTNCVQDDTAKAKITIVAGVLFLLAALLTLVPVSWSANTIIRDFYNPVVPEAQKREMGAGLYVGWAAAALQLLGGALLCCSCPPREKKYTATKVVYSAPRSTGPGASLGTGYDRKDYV
human CLDN9 (claudin 9) (human), sequence (O95484 whole entry): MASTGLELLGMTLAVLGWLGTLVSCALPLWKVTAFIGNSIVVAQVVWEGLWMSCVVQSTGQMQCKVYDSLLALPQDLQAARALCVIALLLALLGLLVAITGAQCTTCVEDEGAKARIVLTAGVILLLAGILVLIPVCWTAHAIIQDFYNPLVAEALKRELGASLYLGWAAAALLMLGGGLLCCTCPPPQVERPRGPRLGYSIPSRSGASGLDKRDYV

percent of events in Q2 (reporter-positive, antibody-positive) [1]: 0.44
percent of events in Q2 (reporter-positive, antibody-positive) [2]: 1.18
percent of events in Q2 (reporter-positive, antibody-positive) [3]: 0.12
percent of events in Q2 (reporter-positive, antibody-positive) [4]: 0.37
percent of events in Q2 (reporter-positive, antibody-positive) [5]: 1.42
Molecule: Isotype (antibody)

percent of events in Q2 (reporter-positive, antibody-positive) [6]: 31.4
Molecule: mouse anti-CLDN3 IgG2a (R&D Systems, MAB4620) (antibody)

percent of events in Q2 (reporter-positive, antibody-positive) [7]: 32.2
percent of events in Q2 (reporter-positive, antibody-positive) [8]: 22.8
Molecule: mouse anti-CLDN6 IgG2b (R&D Systems, MAB3656) (antibody)

EC50 (read off the curve) [9]: ~400 ng/mL
B1: murine monoclonal antibody muMAB 67A (antibody, V domains shown)
VH: EVQLQQSGPELVKPGASMKISCKASGYSFTGYTMNWVKQSHGKNLEWIGLINPYNGGIIYNQKFKGKATLTVDKSSSTAYMELLSLTSEDSAVFYCARDFGYVLDYWGQGTTLTVSS
VL: QIVLTQSPAIMSASPGEKVTITCSASSSVSYMHWFQQKPGTSPKLWIYSTSNLASGVPARFSGSGSGTSYSLTISRVAAEDAATYYCQQRSTYPPWTFGGGTKLEIK

Reference: US20180162938A1 (GANYMED PHARMACEUTICALS, published 2018)
